# Source: patent US20240252614A1 (Pfizer, published 2024)
# B1: hMPV-2 mAb (antibody, V domains shown)
# VH: QVQLQQSGAEVKKPGASVKVSCKASGYTFTSYGISWVRQAPGQGLEWMGWISGYNGNTNYAQTFQGTFTMTTDTSTSTAYMELRRLRSGDTAVYYCARDRYYASGSYNGMDVWGQGTTVTVSS
# VL: QSALTQPPSASGAPGQRVTVSCSGSSSNVGSSSVYWYQQLPGTAPKLLIYRNNQRPSGVPDRFSGSKSGTSASLAISGLRSEDEADYYCAAWDDSLSGWVFGGGTKLTVLG
# notes: human IgG1
# B2: PIV1-8 mAb (antibody, V domains shown)
# VH: QVQLVQSGAEVKKPGSSVKVSCEASGGTFSNYVISWVRQAPGQGLEWMGGIIPVFATAKYAQKFQGRVTIIADQSTNTAYLELSSLRSDDTAVYFCASVDSGGTWWDAFAIWGQGTMVTVSS
# VL: QAVVTQPRSVSGSPGQAVTISCTGTSSDVGGYNYVSWYQHHPGKAPKLIIYDVTKRPSGVPDRFSGSKSGNTASLTISGLQTEYEADYYCCSYAGSYTLVFGGGTKLTVLG
# notes: human IgG1; also called hPIV1-8 mAb; hPIV1-8
# Experiments:
# [1] = target: T1, hMPV079 (hMPV A, UniProt Q6WB98 19-102); assay: BLI, 58C stress
# T1 construct: T411C-Q434C, A140C-S149C, A459P
# Procedure: (§1) The OCTET HTX (Sartorius, Gottingen, Germany) instrument was used to evaluate the expression and conformational integrity for each mutant. All measurements were conducted at 30° C. temperature in 96-well black plates (Corning, Corning, NY) with a final volume of 240 μL per well at a constant agitation rate of 1000 RPM.
# (§2) Conformation integrity of hMPV A F protein mutants were evaluated by thermal stress experiments. Crude cell culture supernatants were normalized based on the results of the titer quantitation and then incubated for 1 hour at room temperature and two higher temperatures. […] Anti-Human IgG Fc Capture (AHC) biosensors were first equilibrated in PB before being dipped into more PB to establish the initial baseline. […] The mAb-bound biosensors were then dipped into the thermal stressed cell culture supernatants for 5 minutes. The kinetics analysis was done by OCTET data analysis software (version 12.0, Sartorius) based on curve fitting of the entire associate step.
# [2] = target: T2, hMPV088 (hMPV A, UniProt Q6WB98 19-102); assay: BLI, 58C stress
# T2 construct: T411C-Q434C, L141C-A161C, G239A
# Procedure: as §1, §2
# [3] = target: T3, hMPV118 (hMPV B, UniProt Q6WB98 19-102); assay: BLI, 63C stress
# T3 construct: T49I, T150C-R156C
# Procedure: (§3) Conformation integrity of hMPV B F protein mutants were evaluated by a thermal stress experiment. Crude cell culture supernatants were normalized based on the results of the titer quantitation and then incubated for 1 hour at room temperature and two higher temperatures. For the testing of hMPV B single mutants, the two temperatures were 53° C. and 56° C. After the incubation, the protein mutants were probed with prefusion specific monoclonal antibody hMPV-2 by OCTET HTX. Anti-Human IgG Fc Capture (AHC) biosensors were first equilibrated in PB before being dipped into more PB for to establish the initial baseline. Biosensors were incubated with hMPV-2 before being equilibrated in PB to establish the experimental baseline. The mAb-bound biosensors were then dipped into the thermal stresses cell culture supernatants for 5 minutes.
# [4] = target: T4, hMPV120 (hMPV B, UniProt Q6WB98 19-102); assay: BLI, 63C stress
# T4 construct: A140C-S149C, T411C-Q434C
# Procedure: as §3
# [5] = target: T5, hMPV121 (hMPV B, UniProt Q6WB98 19-102); assay: BLI, 63C stress
# T5 construct: L141C-A161C, T411C-Q434C
# Procedure: as §3
# [6] = target: T6, hMPV122 (hMPV B, UniProt Q6WB98 19-102); assay: BLI, 63C stress
# T6 construct: A140C-S149C, T411C-Q434C, A459P
# Procedure: as §3
# [7] = target: T7, hMPV123 (hMPV B, UniProt Q6WB98 19-102); assay: BLI, 63C stress
# T7 construct: A140C-S149C, G239A, T411C-Q434C
# Procedure: as §3
# [8] = target: T8, hMPV124 (hMPV B, UniProt Q6WB98 19-102); assay: BLI, 63C stress
# T8 construct: L141C-A161C, T411C-Q434C, A459P
# Procedure: as §3
# [9] = target: T9, hMPV125 (hMPV B, UniProt Q6WB98 19-102); assay: BLI, 63C stress
# T9 construct: L141C-A161C, G239A, T411C-Q434C
# Procedure: as §3
# [10] = target: T10, hMPV126 (hMPV B, UniProt Q6WB98 19-102); assay: BLI, 63C stress
# T10 construct: T49I, T150C-R156C, G239A, A459P
# Procedure: as §3
# [11] = target: T11, hMPV128 (hMPV B, UniProt Q6WB98 19-102); assay: BLI, 63C stress
# T11 construct: T49I, A140C-S149C, G239A, T411C-Q434C, A459P
# Procedure: as §3
# [12] = target: T12, hMPV129 (hMPV B, UniProt Q6WB98 19-102); assay: BLI, 63C stress
# T12 construct: T49I, A140C-S149C, G239A, T365I, T411C-Q434C, A459P
# Procedure: as §3
# [13] = target: T13, hMPV130 (hMPV B, UniProt Q6WB98 19-102); assay: BLI, 63C stress
# T13 construct: L141C-A161C, G239A, T411C-Q434C, A459P
# Procedure: as §3
# [14] = target: T14, hMPV131 (hMPV B, UniProt Q6WB98 19-102); assay: BLI, 63C stress
# T14 construct: T49I, L141C-A161C, G239A, T411C-Q434C, A459P
# Procedure: as §3
# [15] = target: T15, hMPV133 (hMPV B, UniProt Q6WB98 19-102); assay: BLI, 63C stress
# T15 construct: T49I, L141C-A161C, S149T, G239A, T411C-Q434C, A459P
# Procedure: as §3
# [16] = target: T16, hMPV134 (hMPV B, UniProt Q6WB98 19-102); assay: BLI, 63C stress
# T16 construct: T49I, L141C-A161C, S149T, G239A, T365I, T411C-Q434C, A459P
# Procedure: as §3
# [17] = target: T17, hMPV136 (hMPV B, UniProt Q6WB98 19-102); assay: BLI, 63C stress
# T17 construct: A140C-S149C, A459P
# Procedure: as §3
# [18] = target: T18, hMPV137 (hMPV B, UniProt Q6WB98 19-102); assay: BLI, 63C stress
# T18 construct: T49I, A140C-S149C
# Procedure: as §3
# [19] = target: T19, hMPV138 (hMPV B, UniProt Q6WB98 19-102); assay: BLI, 63C stress
# T19 construct: T49I, A140C-S149C, A459P
# Procedure: as §3
# [20] = target: T20, hMPV139 (hMPV B, UniProt Q6WB98 19-102); assay: BLI, 63C stress
# T20 construct: T49I, L141C-A161C, T411C-Q434C
# Procedure: as §3
# [21] = target: T21, hMPV142 (hMPV B, UniProt Q6WB98 19-102); assay: BLI, 63C stress
# T21 construct: L141C-A161C, S149T, A459P
# Procedure: as §3
# [22] = target: T22, stabilized hMPV F protein trimer in pre-fusion conformation (human metapneumovirus); assay: SPR (Biacore 8K+), mAb captured on Protein A chip
# T22 construct: also called preF-hMPV; hMPV pre-fusion F protein
# Source text: (§4) To avoid conformation changes of F protein while coupling to SPR sensor chip an orientation-specific binding of antibodies through constant (Fc) region was chosen to determine affinity of the newly discovered antibodies using Biacore 8K+ system (Cytiva) and corresponding InSight Software (Cytiva) for analysis. […] Unbound antibodies were washed off with 1×HBS-P buffer. […] Dissociation time was set to 600 seconds to allow for elongated fitting model. Chip was regenerated with two cycles of 4.5M MgCI2 solution. […] Affinity of antibodies were reported in molar concentrations as ratio of dissociation and association.
# [23] = target: T23, PIV1042 (PIV1); assay: BLI, 56C stress;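 further: binding of thermally stressed PIV1 F mutant supernatant to mAb on AHC biosensors for 5 min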
# T23 construct: Q92A
# Procedure: (§5) All measurements were conducted at 30° C. temperature in 96-well black plates (Corning, Corning, NY) with a final volume of 240 μL per well at a constant agitation rate of 1000 RPM.
# (§6) Conformation integrity of PIV1 F protein mutants were evaluated by a thermal stress experiment. Crude cell culture supernatants were normalized based on the results of the titer quantitation and then incubated for 1 hour at room temperature and two higher temperatures. For the initial testing of PIV1 mutants, the two temperatures were 50° C. and 53° C. […] Anti-Human IgG Fc Capture (AHC) biosensors were first equilibrated in PB for before being dipped into more PB to establish the initial baseline. […] The mAb-bound biosensors were then dipped into the thermal stresses cell culture supernatants for 5 minutes.
# [24] = target: T24, PIV1043 (PIV1); assay: BLI, 56C stress;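 further: binding of thermally stressed PIV1 F mutant supernatant to mAb on AHC biosensors for 5 min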
# T24 construct: Q92A, G134A
# Procedure: as §5, §6
# [25] = target: T25, PIV1044 (PIV1); assay: BLI, 56C stress;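 further: binding of thermally stressed PIV1 F mutant supernatant to mAb on AHC biosensors for 5 min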
# T25 construct: Q92L
# Procedure: as §5, §6
# [26] = target: T26, PIV1045 (PIV1); assay: BLI, 56C stress;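 further: binding of thermally stressed PIV1 F mutant supernatant to mAb on AHC biosensors for 5 min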
# T26 construct: Q92L, G134A
# Procedure: as §5, §6
# [27] = target: T27, PIV1046 (PIV1); assay: BLI, 56C stress
# T27 construct: A466V, S473V
# Procedure: as §5, §6
# [28] = target: T28, PIV1 F literature prefusion comparison (PIV1); assay: BLI, 53C stress
# T28 construct: F113G, F114S, A466I, S473I (Stewart-Jones et al. 2018)
# Procedure: as §1, §6
# [29] = target: T29, PIV1069 (PIV1); assay: BLI, 53C stress
# T29 construct: F113G, F114S, A466L, S473L, G134A
# Procedure: as §1, §6
# [30] = target: T30, PIV1070 (PIV1); assay: BLI, 53C stress
# T30 construct: F113G, F114S, A466I, S473I, G134A
# Procedure: as §1, §6
# [31] = target: T31, stabilized hPIV1 F protein trimer in pre-fusion conformation (human parainfluenza virus 1); assay: SPR (Biacore 8K+), mAb captured on Protein A chip
# T31 construct: also called preF-hPIV1; HPIV1 pre-fusion F protein
# Source text: as §4
binder,measurement,setting,value
B1,Response Shift,[1],0.736 nm
same,Response Shift,[2],0.492 nm
same,Response Shift,[3],0.028 nm
same,Response Shift,[4],0.502 nm
same,Response Shift,[5],0.078 nm
same,Response Shift,[6],0.665 nm
same,Response Shift,[7],0.549 nm
same,Response Shift,[8],0.065 nm
same,Response Shift,[9],0.233 nm
same,Response Shift,[10],-0.075 nm
same,Response Shift,[11],0.746 nm
same,Response Shift,[12],0.661 nm
same,Response Shift,[13],0.079 nm
same,Response Shift,[14],0.679 nm
same,Response Shift,[15],0.62 nm
same,Response Shift,[16],0.733 nm
same,Response Shift,[17],-0.027 nm
same,Response Shift,[18],0.238 nm
same,Response Shift,[19],0.156 nm
same,Response Shift,[20],0.456 nm
same,Response Shift,[21],0.054 nm
same,Kd,[22],0.685 nM
B2,Response Shift,[23],-0.103 nm
same,Response Shift,[24],-0.102 nm
same,Response Shift,[25],-0.122 nm
same,Response Shift,[26],-0.095 nm
same,Response Shift,[27],-0.091 nm
same,Response Shift,[28],0.717 nm
same,Response Shift,[29],0.847 nm
same,Response Shift,[30],0.84 nm
same,Kd,[31],0.885 nM
